Reference: patent US20170298146A1 (MODIQUEST B V, published 2017)
Non-standard residues stand in square brackets, D forms with d. No end group written: not given here. Cit = NC(=O)NCCC[C@H](N)C(=O)O

Assays:
CFC-1 [1] = target: T1, CFC-1; assay: peptide ELISA, 10 ug/well
T1 construct: Positive control for anti-citrulline reactivity; also called cfc1 XG
Experimental: (§1) Biotin and citrulline-containing peptides derived from histone 2A were immobilized on NEUTRAVIDIN®-coated 96-well ELISA plates (0.3 μg/well). CFC-1 and CFC-0 were coated at the same concentration and served as positive and negative controls respectively for specific anti-citrulline reactivity and as coating controls. Non-coated wells were used to test for aspecific binding of the antibodies. […] Detection of bound anti-citrulline antibodies was performed by incubating the wells with rabbit-anti-human-HRP (1:2000) for one hour at RT followed by incubation with TMB substrate. The resulting OD (y-axis) is a measure for antibody binding.
(§2) Ninety-six-well ELISA plates were coated with NEUTRAVIDIN® (0.1 μg/well) by overnight incubation at 4° C. Wells were washed five times with PBS-TWEEN®-20 (PBS-T) and blocked by a one-hour incubation with PBS-T+1% Bovine serum albumin (BSA) at room temperature (RT). After five more washes with PBS-T, wells were incubated for one hour at RT with histone-derived citrulline and biotin-containing peptides (0.3 μg/well). […] Wells were washed five times with PBS-T and incubated with rabbit-anti-human-HRP (1:2000) for one hour at RT followed by five washes with PBS-T and three wash steps with PBS. Wells were incubated for five minutes with TMB substrate before stopping the reaction with 2 M H₂SO₄. Optical density was measured by 450 nm and is a measure for the affinity of the antibodies used.

[2] = target: T2, Histone 2A citrulline-containing peptide 1 (human, also: biotin label); assay: peptide ELISA, 10 ug/well
T2 construct: also called AAASGXGKQGGK
T2 peptide: AAASG[Cit]GKQGGK
Experimental: as §1, §2

[3] = target: T3, Histone 2A citrulline-containing peptide 2 (human, also: biotin label); assay: peptide ELISA, 10 ug/well
T3 peptide: AKAKS[Cit]SSRAGL
Experimental: as §1, §2

[4] = target: T4, Histone 2A citrulline-containing peptide 3 (human, also: biotin label); assay: peptide ELISA, 10 ug/well
T4 peptide: KSRSS[Cit]AGLQFP
Experimental: as §1, §2

[5] = target: T5, Histone 2A citrulline-containing peptide 4 (human, also: biotin label); assay: peptide ELISA, 10 ug/well
T5 peptide: QFPVG[Cit]VHRLLR
Experimental: as §1, §2

[6] = target: T6, Histone 2A citrulline-containing peptide 5 (human, also: biotin label); assay: peptide ELISA, 10 ug/well
T6 peptide: VGRVH[Cit]LLRKGN
Experimental: as §1, §2

[7] = target: T7, Histone 2A citrulline-containing peptide 6 (human, also: biotin label); assay: peptide ELISA, 10 ug/well
T7 peptide: VHRLL[Cit]KGNYSE
Experimental: as §1, §2

[8] = target: T8, Histone 2A citrulline-containing peptide 7 (human, also: biotin label); assay: peptide ELISA, 10 ug/well
T8 peptide: GNYSE[Cit]VGAGAP
Experimental: as §1, §2

[9] = target: T9, Histone 2A citrulline-containing peptide 8 (human, also: biotin label); assay: peptide ELISA, 10 ug/well
T9 peptide: AGNAA[Cit]DNKKTR
Experimental: as §1, §2

[10] = target: T10, Histone 2A citrulline-containing peptide 9 (human, also: biotin label); assay: peptide ELISA, 10 ug/well
T10 peptide: DNKKT[Cit]IIPRHL
Experimental: as §1, §2

[11] = target: T11, Histone 2A citrulline-containing peptide 10 (human, also: biotin label); assay: peptide ELISA, 10 ug/well
T11 peptide: TRIIP[Cit]HLQLAI
Experimental: as §1, §2

[12] = target: T12, Histone 2A citrulline-containing peptide 11 (human, also: biotin label); assay: peptide ELISA, 10 ug/well
T12 peptide: LQLAI[Cit]NDEELN
Experimental: as §1, §2

[13] = target: T13, Histone 2A citrulline-containing peptide 12 (human, also: biotin label); assay: peptide ELISA, 10 ug/well
T13 peptide: NKLLG[Cit]VTIAQG
Experimental: as §1, §2

CFC-1 [14] = target: T1, CFC-1; assay: peptide ELISA, 0.00064 ug/well
Experimental: as §1, with “fibrinogen and vimentin” for “histone 2A”
(§3) Biotin-labeled and citrulline-containing fibrinogen and vimentin peptides (Table 5) were also tested for reactivity with the therapeutic antibodies. Peptides were coated on 96-well NEUTRAVIDIN®-ELISA plates.

msFibα XH = target: T14, msFibα XH (mouse, X at position 15 is citrulline; biotin label); assay: peptide ELISA, 0.00064 ug/well
T14 peptide: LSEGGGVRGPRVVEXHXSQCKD
Experimental: as §1, with “fibrinogen and vimentin” for “histone 2A”
as §3

msFibα XG [15] = target: T15, msFibα XG (mouse, X at position 8 is citrulline; biotin label); assay: peptide ELISA, 0.00064 ug/well
T15 peptide: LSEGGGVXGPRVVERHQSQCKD
Experimental: as §1, with “fibrinogen and vimentin” for “histone 2A”
as §3

huFibα XH [16] = target: T16, huFibα XH (human, X at position 15 is citrulline; biotin label); assay: peptide ELISA, 0.00064 ug/well
T16 peptide: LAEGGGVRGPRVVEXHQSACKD
Experimental: as §1, with “fibrinogen and vimentin” for “histone 2A”
as §3

huFibα XG [17] = target: T17, huFibα XG (human, X at position 8 is citrulline; biotin label); assay: peptide ELISA, 0.00064 ug/well
T17 peptide: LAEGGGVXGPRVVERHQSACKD
Experimental: as §1, with “fibrinogen and vimentin” for “histone 2A”
as §3

msFibβ XG = target: T18, msFibβ XG (mouse, also: biotin label); assay: peptide ELISA, 0.00064 ug/well
T18 peptide: EPTDSLDA[Cit]GHRPVDRR
Experimental: as §1, with “fibrinogen and vimentin” for “histone 2A”
as §3

msVim XS/XL [18] = target: T19, msVim XS/XL (mouse, also: biotin label); assay: peptide ELISA, 0.00064 ug/well
T19 construct: also called mouse vimentin peptide
T19 peptide: YVT[Cit]SSAV[Cit]L[Cit]SSVP
Experimental: as §1, with “fibrinogen and vimentin” for “histone 2A”
as §3

CFC-1 [19] = target: T1, CFC-1; assay: peptide ELISA, 0.000128 ug/well
Experimental: as §1, with “fibrinogen and vimentin” for “histone 2A”
as §3

msFibα XG [20] = target: T15, msFibα XG; assay: peptide ELISA, 0.000128 ug/well
Experimental: as §1, with “fibrinogen and vimentin” for “histone 2A”
as §3

huFibα XH [21] = target: T16, huFibα XH; assay: peptide ELISA, 0.000128 ug/well
Experimental: as §1, with “fibrinogen and vimentin” for “histone 2A”
as §3

huFibα XG [22] = target: T17, huFibα XG; assay: peptide ELISA, 0.000128 ug/well
Experimental: as §1, with “fibrinogen and vimentin” for “histone 2A”
as §3

msVim XS/XL [23] = target: T19, msVim XS/XL; assay: peptide ELISA, 0.000128 ug/well
Experimental: as §1, with “fibrinogen and vimentin” for “histone 2A”
as §3

B1: RhmAb2.102 (antibody, human IgG1, lambda)
heavy: not shown
light: QSVLTQPPSMSAAPGQKVTISCSGSSSNIGNNYVSWYQQVPGTAPKLLIYDDNKRPSGIPGRFSGSKSATSATLGITGLQAGDEADYYCGSWDDNLSVVLFGGGTKLTVLGQPKAAPSVTLFPPSSEELQANKATLVCLISDFYPGAVTVAWKADSSPVKAGVETTTPSKQSNNKYAASSYLSLTPEQWKSHRSYSCQVTHEGSTVEKTVAPTECS
notes: Human IgG1 lambda; also called Rhm2.102
- OD (CFC-1 [1]): 3.27 OD
- OD [2]: 3.11 OD
- OD [3]: 0.552 OD
- OD [4]: 0.619 OD
- OD [5]: 2.06 OD
- OD [6]: 0.239 OD
- OD [7]: 1.41 OD
- OD [8]: 0.08 OD
- OD [9]: 0.082 OD
- OD [10]: 0.09 OD
- OD [11]: 0.091 OD
- OD [12]: 0.088 OD
- OD [13]: 0.083 OD
- OD (CFC-1 [14]): 0.345 OD
- OD (msFibα XH): 0.088 OD
- OD (msFibα XG [15]): 0.116 OD
- OD (huFibα XH [16]): 0.124 OD
- OD (huFibα XG [17]): 0.125 OD
- OD (msFibβ XG): 0.133 OD
- OD (msVim XS/XL [18]): 0.154 OD
- OD (CFC-1 [19]): 0.288 OD
- OD (msFibα XG [20]): 0.119 OD
- OD (huFibα XH [21]): 0.12 OD
- OD (huFibα XG [22]): 0.115 OD
- OD (msVim XS/XL [23]): 0.133 OD
